Test results as given in patent US7741283B2, “Compositions and methods for inhibiting cell proliferation” (St. Louis University, priority 2003, dated 2010).

Columns and labels:
IRS-2 = assay: 32P metabolic labeling and immunoprecipitation of IRS-2, Mv1Lu cells; format: cell-based, mink; conditions: Mv1Lu; for Induction of specific dephosphorylation (mobility change) of 32P-labeled IRS-2: IGFBPs 1 μg/ml, TGF-β1 20 pM
Mv1Lu cells = assay: [methyl-3H] thymidine incorporation (DNA synthesis), Mv1Lu cells; format: cell-based, mink; conditions: Mv1Lu cells
acidic pH binding sites [1] = molecular target: T1, acidic pH binding sites (Mus musculus, UniProt P14824); assay: Specific binding of 125I-ligands to PEA-13 cells at acidic pH; set-up: endogenous in cells; host or cells: PEA-13 (LRP-1-deficient mouse embryonic fibroblasts); conditions: 10 μM protein, pH 5.5, PEA-13
T1 sequence (P14824 2-673): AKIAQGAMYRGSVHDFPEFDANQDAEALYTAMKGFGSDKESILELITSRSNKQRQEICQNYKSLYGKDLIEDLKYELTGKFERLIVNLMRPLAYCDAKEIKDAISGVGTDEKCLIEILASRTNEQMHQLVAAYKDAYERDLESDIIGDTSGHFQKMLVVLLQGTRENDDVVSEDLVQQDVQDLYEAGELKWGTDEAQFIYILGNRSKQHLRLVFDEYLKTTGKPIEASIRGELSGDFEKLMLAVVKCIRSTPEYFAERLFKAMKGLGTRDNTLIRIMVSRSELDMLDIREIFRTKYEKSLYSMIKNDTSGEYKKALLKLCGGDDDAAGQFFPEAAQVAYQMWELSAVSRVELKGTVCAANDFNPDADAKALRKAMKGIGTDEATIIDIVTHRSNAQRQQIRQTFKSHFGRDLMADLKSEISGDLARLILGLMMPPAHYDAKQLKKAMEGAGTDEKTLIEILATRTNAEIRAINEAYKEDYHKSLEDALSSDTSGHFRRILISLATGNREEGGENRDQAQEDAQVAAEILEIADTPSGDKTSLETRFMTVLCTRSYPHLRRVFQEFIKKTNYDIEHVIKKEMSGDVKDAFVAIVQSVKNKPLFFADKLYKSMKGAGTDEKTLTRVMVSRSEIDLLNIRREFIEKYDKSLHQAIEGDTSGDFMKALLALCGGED

acidic pH binding sites [2] = molecular target: acidic pH binding sites (Neogale vison, UniProt A0A8C7BSJ2); assay: Specific binding of 125I-ligands to Mv1Lu cells at acidic pH; set-up: species or system mink
[3] = system: TβR-V purified from bovine liver plasma membranes; assay: 125I-IGFBP-3 / 125I-TGF-β1 affinity labeling of purified TβR-V; format: binding; conditions: DSS, β1^25(41-65) 20 μM, RAP 10-40 μg/ml, α2M* 100 nM, lactoferrin 100 nM
LRP-1 [4] = molecular target: T2, LRP-1 (Mus musculus, UniProt Q91ZX7); assay: 125I-α2M* binding to MEF cells at pH 7.4; conditions: 10 μM protein, pH 7.4, MEF
T2 construct: endogenous in cells; host or cells: MEF (mouse embryonic fibroblasts)

LRP-1 [5] = assay: 125I-α2M* binding to Mv1Lu cells at pH 7.4; set-up: species or system mink; conditions: 10 μM protein, pH 7.4, Mv1Lu
acidic pH binding sites [6] = molecular target: T1, acidic pH binding sites; assay: Specific binding of 125I-ligands to MEF cells at acidic pH; conditions: 10 μM protein, pH 5.5, MEF

Chain of acidic pH binding sites (Neogale vison, UniProt A0A8C7BSJ2) (A0A8C7BSJ2 entry or part of it): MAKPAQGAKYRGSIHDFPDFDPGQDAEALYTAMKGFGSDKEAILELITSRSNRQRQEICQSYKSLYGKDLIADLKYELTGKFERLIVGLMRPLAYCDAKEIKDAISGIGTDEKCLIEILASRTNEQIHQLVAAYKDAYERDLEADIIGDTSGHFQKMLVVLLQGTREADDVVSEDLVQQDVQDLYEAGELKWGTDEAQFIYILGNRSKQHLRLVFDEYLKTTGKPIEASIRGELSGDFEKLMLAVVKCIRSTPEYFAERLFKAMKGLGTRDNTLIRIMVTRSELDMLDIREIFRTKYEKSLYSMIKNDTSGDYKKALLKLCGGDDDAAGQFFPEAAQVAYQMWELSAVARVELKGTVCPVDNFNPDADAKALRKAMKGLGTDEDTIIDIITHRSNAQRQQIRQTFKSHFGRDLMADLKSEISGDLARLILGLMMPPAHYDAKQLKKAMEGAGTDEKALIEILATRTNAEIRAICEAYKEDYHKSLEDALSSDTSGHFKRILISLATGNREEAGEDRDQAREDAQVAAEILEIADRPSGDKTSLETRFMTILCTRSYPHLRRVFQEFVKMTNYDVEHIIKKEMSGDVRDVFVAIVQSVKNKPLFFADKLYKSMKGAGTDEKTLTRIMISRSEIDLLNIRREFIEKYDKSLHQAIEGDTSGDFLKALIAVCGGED
T2 sequence (Q91ZX7 20-4545): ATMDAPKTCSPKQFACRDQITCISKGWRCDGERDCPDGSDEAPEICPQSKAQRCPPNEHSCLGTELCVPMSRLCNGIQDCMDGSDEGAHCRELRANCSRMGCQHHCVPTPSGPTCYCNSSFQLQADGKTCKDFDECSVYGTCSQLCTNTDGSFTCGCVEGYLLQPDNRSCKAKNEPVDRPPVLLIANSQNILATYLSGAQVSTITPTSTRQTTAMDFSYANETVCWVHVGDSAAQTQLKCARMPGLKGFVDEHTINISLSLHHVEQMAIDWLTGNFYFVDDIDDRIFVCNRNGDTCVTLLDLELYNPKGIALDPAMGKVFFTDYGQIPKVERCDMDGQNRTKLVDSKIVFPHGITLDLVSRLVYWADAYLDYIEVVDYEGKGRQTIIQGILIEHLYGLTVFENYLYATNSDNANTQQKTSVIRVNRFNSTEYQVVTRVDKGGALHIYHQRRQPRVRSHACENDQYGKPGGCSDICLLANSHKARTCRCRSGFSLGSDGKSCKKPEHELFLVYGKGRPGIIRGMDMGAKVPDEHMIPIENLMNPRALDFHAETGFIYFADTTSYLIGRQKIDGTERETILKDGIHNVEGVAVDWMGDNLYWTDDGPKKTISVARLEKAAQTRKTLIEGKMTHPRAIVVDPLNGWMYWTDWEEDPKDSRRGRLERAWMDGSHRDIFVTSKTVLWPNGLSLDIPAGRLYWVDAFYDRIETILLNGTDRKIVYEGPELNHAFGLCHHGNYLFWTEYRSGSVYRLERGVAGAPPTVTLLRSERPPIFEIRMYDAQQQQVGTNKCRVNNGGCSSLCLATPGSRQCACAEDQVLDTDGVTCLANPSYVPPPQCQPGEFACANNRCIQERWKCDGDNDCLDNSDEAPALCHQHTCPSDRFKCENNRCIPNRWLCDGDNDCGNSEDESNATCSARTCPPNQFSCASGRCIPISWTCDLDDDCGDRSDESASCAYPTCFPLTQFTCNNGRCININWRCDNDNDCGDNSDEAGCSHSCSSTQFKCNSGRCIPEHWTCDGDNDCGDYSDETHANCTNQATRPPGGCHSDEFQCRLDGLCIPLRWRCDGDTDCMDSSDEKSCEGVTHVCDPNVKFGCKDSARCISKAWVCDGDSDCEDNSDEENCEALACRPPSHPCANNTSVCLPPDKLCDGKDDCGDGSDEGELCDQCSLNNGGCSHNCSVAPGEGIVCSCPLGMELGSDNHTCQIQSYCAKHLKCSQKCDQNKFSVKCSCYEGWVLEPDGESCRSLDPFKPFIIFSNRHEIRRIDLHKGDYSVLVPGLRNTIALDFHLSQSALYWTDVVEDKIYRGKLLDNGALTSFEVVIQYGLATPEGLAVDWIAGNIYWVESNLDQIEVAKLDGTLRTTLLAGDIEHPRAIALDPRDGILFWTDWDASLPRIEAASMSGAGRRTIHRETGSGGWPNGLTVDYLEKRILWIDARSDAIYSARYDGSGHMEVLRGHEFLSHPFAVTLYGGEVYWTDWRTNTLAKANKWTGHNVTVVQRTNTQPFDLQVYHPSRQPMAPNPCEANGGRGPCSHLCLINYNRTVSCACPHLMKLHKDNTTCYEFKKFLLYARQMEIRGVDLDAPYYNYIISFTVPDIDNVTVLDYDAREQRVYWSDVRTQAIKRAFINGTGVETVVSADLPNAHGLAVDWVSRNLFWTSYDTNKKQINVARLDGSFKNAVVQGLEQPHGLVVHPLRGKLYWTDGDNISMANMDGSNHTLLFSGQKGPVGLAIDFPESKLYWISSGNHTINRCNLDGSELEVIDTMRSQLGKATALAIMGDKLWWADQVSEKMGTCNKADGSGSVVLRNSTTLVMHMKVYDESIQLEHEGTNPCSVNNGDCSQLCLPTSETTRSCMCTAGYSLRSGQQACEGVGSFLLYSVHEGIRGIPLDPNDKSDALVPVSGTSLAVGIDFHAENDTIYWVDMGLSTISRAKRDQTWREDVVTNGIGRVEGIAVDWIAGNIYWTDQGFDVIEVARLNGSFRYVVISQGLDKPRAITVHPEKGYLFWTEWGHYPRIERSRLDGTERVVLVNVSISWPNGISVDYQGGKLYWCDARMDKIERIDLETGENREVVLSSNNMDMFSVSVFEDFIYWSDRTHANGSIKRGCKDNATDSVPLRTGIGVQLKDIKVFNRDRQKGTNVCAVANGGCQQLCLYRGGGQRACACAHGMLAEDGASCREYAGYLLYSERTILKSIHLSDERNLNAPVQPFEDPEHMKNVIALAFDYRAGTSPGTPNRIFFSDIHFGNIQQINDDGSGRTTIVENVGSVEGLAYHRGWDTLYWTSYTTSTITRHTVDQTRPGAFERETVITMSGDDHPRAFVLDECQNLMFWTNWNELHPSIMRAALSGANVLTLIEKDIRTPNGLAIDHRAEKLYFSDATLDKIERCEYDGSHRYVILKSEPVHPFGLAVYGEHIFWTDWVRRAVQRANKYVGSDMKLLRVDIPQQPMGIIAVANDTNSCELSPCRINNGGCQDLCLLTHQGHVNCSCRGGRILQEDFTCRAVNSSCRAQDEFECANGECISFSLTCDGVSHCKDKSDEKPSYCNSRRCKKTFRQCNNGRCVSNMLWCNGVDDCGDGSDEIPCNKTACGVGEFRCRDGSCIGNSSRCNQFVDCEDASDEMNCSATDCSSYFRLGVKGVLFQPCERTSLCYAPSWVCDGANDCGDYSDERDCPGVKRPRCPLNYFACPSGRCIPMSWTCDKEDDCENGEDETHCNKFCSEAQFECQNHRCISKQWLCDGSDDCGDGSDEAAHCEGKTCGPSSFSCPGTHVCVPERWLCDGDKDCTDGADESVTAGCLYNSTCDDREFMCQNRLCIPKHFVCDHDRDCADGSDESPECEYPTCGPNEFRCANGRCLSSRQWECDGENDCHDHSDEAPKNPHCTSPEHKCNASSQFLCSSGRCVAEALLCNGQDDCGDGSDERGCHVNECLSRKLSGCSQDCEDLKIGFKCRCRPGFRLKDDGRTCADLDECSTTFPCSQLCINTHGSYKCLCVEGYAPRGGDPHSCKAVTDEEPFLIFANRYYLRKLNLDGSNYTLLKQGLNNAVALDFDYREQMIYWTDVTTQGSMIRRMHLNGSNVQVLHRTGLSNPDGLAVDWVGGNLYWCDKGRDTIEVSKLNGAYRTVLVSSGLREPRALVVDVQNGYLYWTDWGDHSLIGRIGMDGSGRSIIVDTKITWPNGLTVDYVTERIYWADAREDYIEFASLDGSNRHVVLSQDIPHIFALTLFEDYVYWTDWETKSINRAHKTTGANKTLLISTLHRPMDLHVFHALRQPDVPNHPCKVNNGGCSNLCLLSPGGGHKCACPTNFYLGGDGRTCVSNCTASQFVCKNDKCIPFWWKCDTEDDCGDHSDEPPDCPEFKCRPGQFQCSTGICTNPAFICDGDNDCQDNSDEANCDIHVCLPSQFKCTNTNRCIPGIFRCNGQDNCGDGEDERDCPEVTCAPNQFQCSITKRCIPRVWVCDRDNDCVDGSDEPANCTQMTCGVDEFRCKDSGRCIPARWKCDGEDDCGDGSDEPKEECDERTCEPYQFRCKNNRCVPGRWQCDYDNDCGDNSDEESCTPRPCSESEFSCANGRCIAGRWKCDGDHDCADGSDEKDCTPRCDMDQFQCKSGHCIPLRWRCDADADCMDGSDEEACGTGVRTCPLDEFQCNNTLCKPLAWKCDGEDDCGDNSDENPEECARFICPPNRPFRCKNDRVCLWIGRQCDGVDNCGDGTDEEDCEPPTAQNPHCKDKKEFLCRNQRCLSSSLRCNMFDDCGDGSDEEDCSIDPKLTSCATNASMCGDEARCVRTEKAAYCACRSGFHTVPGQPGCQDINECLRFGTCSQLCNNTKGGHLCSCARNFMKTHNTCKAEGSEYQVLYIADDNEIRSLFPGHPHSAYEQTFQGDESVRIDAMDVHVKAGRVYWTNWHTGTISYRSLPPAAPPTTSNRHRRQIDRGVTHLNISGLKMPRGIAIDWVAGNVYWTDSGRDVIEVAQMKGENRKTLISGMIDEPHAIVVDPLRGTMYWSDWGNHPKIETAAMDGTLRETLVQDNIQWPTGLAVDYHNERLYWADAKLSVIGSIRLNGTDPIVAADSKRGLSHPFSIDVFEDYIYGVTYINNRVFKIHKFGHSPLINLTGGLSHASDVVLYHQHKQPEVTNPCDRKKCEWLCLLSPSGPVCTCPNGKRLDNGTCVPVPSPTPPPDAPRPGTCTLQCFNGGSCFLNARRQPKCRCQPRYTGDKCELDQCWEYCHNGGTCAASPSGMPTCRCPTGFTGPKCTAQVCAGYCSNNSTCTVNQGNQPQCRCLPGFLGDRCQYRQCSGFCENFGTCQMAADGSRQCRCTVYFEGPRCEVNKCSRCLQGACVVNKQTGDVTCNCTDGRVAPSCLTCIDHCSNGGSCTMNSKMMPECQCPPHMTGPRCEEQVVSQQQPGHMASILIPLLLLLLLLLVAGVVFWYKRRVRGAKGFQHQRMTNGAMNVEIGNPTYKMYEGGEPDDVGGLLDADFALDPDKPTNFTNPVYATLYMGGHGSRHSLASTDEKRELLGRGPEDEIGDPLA

B1: IGFBP-1: IGFBP known not to bind to the IGFBP-3 receptor (protein)
chain: APWQCAPCSAEKLALCPPVSASCSEVTRSAGCGCCPMCALPLGAACGVATARCARGLSCRALPGEQQPLHALTRGQGACVQESDASAPHAAEAGSPESPESTEITEEELLDNFHLMAPSEEDHSILWDAISTYDGSKALHVTNIKKWKEPCRIELYRVVESLAKAQETSGEEISKFYLPNCNKNGFYHSRQCETSMDGEAGLCWCVYPWNGKRIPGSPEIRGDPNCQIYFNVQN
- Induction of specific dephosphorylation (mobility change) of 32P-labeled IRS-2 (IRS-2): did not induce

B2: (Q^3A^4Y^15L^16) IGF-I: an IGF-I analog which has a low affinity for IGFBP-3 (protein, UniProt P05019 49-118, looked up, variant E3Q T4A Q15Y F16L)
Insulin-like growth factor 1: GPQALCGAELVDALYLVCGDRGFYFNKPTGYGSSSRRAPQTGIVDECCFRSCDLRRLEMYCAPLKPAKSA
modifications: Insulin-like growth factor I
- Blocking of IGFBP-3-induced specific dephosphorylation of IRS-2 by growth factors/cytokines (IRS-2; IGFBP-3 1 μg/ml […] then factor 10 nM (TGF-β1 20 pM) 0.5 hr): blocked
- Blocking of IGFBP-3-induced growth inhibition (Mv1Lu cells): completely blocked

B3: lactoferrin: bovine lactoferrin, an LRP-1 ligand (protein, UniProt P24627 20-708, looked up)
Lactotransferrin: APRKNVRWCTISQPEWFKCRRWQWRMKKLGAPSITCVRRAFALECIRAIAEKKADAVTLDGGMVFEAGRDPYKLRPVAAEIYGTKESPQTHYYAVAVVKKGSNFQLDQLQGRKSCHTGLGRSAGWIIPMGILRPYLSWTESLEPLQGAVAKFFSASCVPCIDRQAYPNLCQLCKGEGENQCACSSREPYFGYSGAFKCLQDGAGDVAFVKETTVFENLPEKADRDQYELLCLNNSRAPVDAFKECHLAQVPSHAVVARSVDGKEDLIWKLLSKAQEKFGKNKSRSFQLFGSPPGQRDLLFKDSALGFLRIPSKVDSALYLGSRYLTTLKNLRETAEEVKARYTRVVWCAVGPEEQKKCQQWSQQSGQNVTCATASTTDDCIVLVLKGEADALNLDGGYIYTAGKCGLVPVLAENRKSSKHSSLDCVLRPTEGYLAVAVVKKANEGLTWNSLKDKKSCHTAVDRTAGWNIPMGLIVNQTGSCAFDEFFSQSCAPGADPKSRLCALCAGDDQGLDKCVPNSKEKYYGYTGAFRCLAEDVGDVAFVKNDTVWENTNGESTADWAKNLNREDFRLLCLDGTRKPVTEAQSCHLAVAPNHAVVSRSDRAAHVKQVLLHQQALFGKNGKNCPDKFCLFKSETKNLLFNDNTECLAKLGGRPTYEEYLGTEYVTAIANLKKCSTSPLLEACAFLTR
- Specific binding of ^125I-α2M* (acidic pH binding sites [1]): completely blocked
- Specific binding of ^125I-α2M* (acidic pH binding sites [2]; 10 μM protein, pH 5.5, Mv1Lu): completely blocked
- IC50 (acidic pH binding sites [2]; Mv1Lu cells, pH 5 or 6, read-out: IC50, inhibition of ^125I-α2M* binding to cells): ~50 nM
- ^125I-TGF-β1 binding to purified TβR-V ([3]; 0.1 nM 125I-TGF-β1, […] 0° C.): did not have a significant effect
- ^125I-IGFBP-3 binding to purified TβR-V ([3]; 10 nM 125I-IGFBP-3, […] 0° C.): did not have a significant effect
- ^125I-α2M* binding (LRP-1 [4]): did not have a significant effect
- ^125I-α2M* binding (LRP-1 [5]): did not have a significant effect
- Specific binding of ^125I-α2M* (acidic pH binding sites [6]): completely blocked

B4: IGFBP-2: IGFBP known not to bind to the IGFBP-3 receptor (protein, UniProt P18065 36-325, looked up)
Insulin-like growth …: AEVLFRCPPCTPERLAACGPPPVAPPAAVAAVAGGARMPCAELVREPGCGCCSVCARLEGEACGVYTPRCGQGLRCYPHPGSELPLQALVMGEGTCEKRRDAEYGASPEQVADNGDDHSEGGLVENHVDSTMNMLGGGGSAGRKPLKSGMKELAVFREKVTEQHRQMGKGGKHHLGLEEPKKLRPPPARTPCQQELDQVLERISTMRLPDERGPLEHLYSLHIPNCDKHGLYNLKQCKMSLNGQRGECWCVNPNTGKLIQGAPTIRGDPECHLFYNEQQEARGVHTQRMQ
- Induction of specific dephosphorylation (mobility change) of 32P-labeled IRS-2 (IRS-2): did not induce
